B1: CIgG4F6A1(RS) (Fc fusion)
chain 1: GPPCPPCPAPEFLGGPSVFLFPPKPKDTLMISRTPEVTCVVVDVSQEDPEVQFNWYVDGVEVHNAKTKPREEQFNSTYRVVSVLTVLHQDWLNGKEYKCKVSNKGLPSSIEKTISKAKGQPREPQVYTLPPCQEEMTKNQVSLWCLVKGFYPSDIAVEWESNGQPENNYKTTPPVLDSDGSFFLYSRLTVDKSRWQEGNVFSCSVMHEALHNHYTQKSLSLSLGKRSDVQLQESGGGLVQAGGSLRLSCAASGLTFGSYDMGWYRQAPGKQRELVGRIRNDGITYYADSVKGRFTMSRDNAKNTVYLQMNSLKPEDTAVYYCAADGTGLGHYDYWGQGTQVTVS
chain 2: GPPCPPCPAPEFLGGPSVFLFPPKPKDTLMISRTPEVTCVVVDVSQEDPEVQFNWYVDGVEVHNAKTKPREEQFNSTYRVVSVLTVLHQDWLNGKEYKCKVSNKGLPSSIEKTISKAKGQPREPQVCTLPPSQEEMTKNQVSLSCAVKGFYPSDIAVEWESNGQPENNYKTTPPVLDSDGSFFLVSRLTVDKSRWQEGNVFSCSVMHEALHNHYTQKSLSLSLGKRSEVQLLESGGGLVQPGGSLRLSCAASGFTFGNYDMAWVRQAPGKRPEWVSSIDTGGDITHYADSVKGRFTISRDNAKNTLYLQMNSLRPEDTAVYWCATDEEYALGPNEFDYYGQGTLVTVSS
B2: CIgG4F5A1(G4S)3 (Fc fusion)
chain 1: GPPCPPCPAPEFLGGPSVFLFPPKPKDTLMISRTPEVTCVVVDVSQEDPEVQFNWYVDGVEVHNAKTKPREEQFNSTYRVVSVLTVLHQDWLNGKEYKCKVSNKGLPSSIEKTISKAKGQPREPQVYTLPPCQEEMTKNQVSLWCLVKGFYPSDIAVEWESNGQPENNYKTTPPVLDSDGSFFLYSRLTVDKSRWQEGNVFSCSVMHEALHNHYTQKSLSLSLGKGGGGSGGGGSGGGGSDVQLQESGGGLVQPGGSLRLSCAASGSIFSIDIMGWYRQAPGKQRELVATMPEGNYINYADSVKGRLTLSRDKGKNTVYLQLNSLKPEDTAVYYCYGFGVREGRGNVYWGQGTQVTVS
chain 2: GPPCPPCPAPEFLGGPSVFLFPPKPKDTLMISRTPEVTCVVVDVSQEDPEVQFNWYVDGVEVHNAKTKPREEQFNSTYRVVSVLTVLHQDWLNGKEYKCKVSNKGLPSSIEKTISKAKGQPREPQVCTLPPSQEEMTKNQVSLSCAVKGFYPSDIAVEWESNGQPENNYKTTPPVLDSDGSFFLVSRLTVDKSRWQEGNVFSCSVMHEALHNHYTQKSLSLSLGKGGGGSGGGGSGGGGSEVQLLESGGGLVQPGGSLRLSCAASGFTFGNYDMAWVRQAPGKRPEWVSSIDTGGDITHYADSVKGRFTISRDNAKNTLYLQMNSLRPEDTAVYWCATDEEYALGPNEFDYYGQGTLVTVSS
B3: NIgG4F6A1(G4S)2 (Fc fusion)
chain 1: DVQLQESGGGLVQAGGSLRLSCAASGLTFGSYDMGWYRQAPGKQRELVGRIRNDGITYYADSVKGRFTMSRDNAKNTVYLQMNSLKPEDTAVYYCAADGTGLGHYDYWGQGTQVTVSGGGGSGGGGSGPPCPPCPAPEFLGGPSVFLFPPKPKDTLMISRTPEVTCVVVDVSQEDPEVQFNWYVDGVEVHNAKTKPREEQFNSTYRVVSVLTVLHQDWLNGKEYKCKVSNKGLPSSIEKTISKAKGQPREPQVYTLPPCQEEMTKNQVSLWCLVKGFYPSDIAVEWESNGQPENNYKTTPPVLDSDGSFFLYSRLTVDKSRWQEGNVFSCSVMHEALHNHYTQKSLSLSLGK
chain 2: EVQLLESGGGLVQPGGSLRLSCAASGFTFGNYDMAWVRQAPGKRPEWVSSIDTGGDITHYADSVKGRFTISRDNAKNTLYLQMNSLRPEDTAVYWCATDEEYALGPNEFDYYGQGTLVTVSSGGGGSGGGGSGPPCPPCPAPEFLGGPSVFLFPPKPKDTLMISRTPEVTCVVVDVSQEDPEVQFNWYVDGVEVHNAKTKPREEQFNSTYRVVSVLTVLHQDWLNGKEYKCKVSNKGLPSSIEKTISKAKGQPREPQVCTLPPSQEEMTKNQVSLSCAVKGFYPSDIAVEWESNGQPENNYKTTPPVLDSDGSFFLVSRLTVDKSRWQEGNVFSCSVMHEALHNHYTQKSLSLSLGK
B4: NIgG4F6A1(RS) (Fc fusion)
chain 1: DVQLQESGGGLVQAGGSLRLSCAASGLTFGSYDMGWYRQAPGKQRELVGRIRNDGITYYADSVKGRFTMSRDNAKNTVYLQMNSLKPEDTAVYYCAADGTGLGHYDYWGQGTQVTVSRSGPPCPPCPAPEFLGGPSVFLFPPKPKDTLMISRTPEVTCVVVDVSQEDPEVQFNWYVDGVEVHNAKTKPREEQFNSTYRVVSVLTVLHQDWLNGKEYKCKVSNKGLPSSIEKTISKAKGQPREPQVYTLPPCQEEMTKNQVSLWCLVKGFYPSDIAVEWESNGQPENNYKTTPPVLDSDGSFFLYSRLTVDKSRWQEGNVFSCSVMHEALHNHYTQKSLSLSLGK
chain 2: EVQLLESGGGLVQPGGSLRLSCAASGFTFGNYDMAWVRQAPGKRPEWVSSIDTGGDITHYADSVKGRFTISRDNAKNTLYLQMNSLRPEDTAVYWCATDEEYALGPNEFDYYGQGTLVTVSSRSGPPCPPCPAPEFLGGPSVFLFPPKPKDTLMISRTPEVTCVVVDVSQEDPEVQFNWYVDGVEVHNAKTKPREEQFNSTYRVVSVLTVLHQDWLNGKEYKCKVSNKGLPSSIEKTISKAKGQPREPQVCTLPPSQEEMTKNQVSLSCAVKGFYPSDIAVEWESNGQPENNYKTTPPVLDSDGSFFLVSRLTVDKSRWQEGNVFSCSVMHEALHNHYTQKSLSLSLGK
B5: NIgG4F6A1(G4S)3 (Fc fusion)
chain 1: DVQLQESGGGLVQAGGSLRLSCAASGLTFGSYDMGWYRQAPGKQRELVGRIRNDGITYYADSVKGRFTMSRDNAKNTVYLQMNSLKPEDTAVYYCAADGTGLGHYDYWGQGTQVTVSGGGGSGGGGSGGGGSGPPCPPCPAPEFLGGPSVFLFPPKPKDTLMISRTPEVTCVVVDVSQEDPEVQFNWYVDGVEVHNAKTKPREEQFNSTYRVVSVLTVLHQDWLNGKEYKCKVSNKGLPSSIEKTISKAKGQPREPQVYTLPPCQEEMTKNQVSLWCLVKGFYPSDIAVEWESNGQPENNYKTTPPVLDSDGSFFLYSRLTVDKSRWQEGNVFSCSVMHEALHNHYTQKSLSLSLGK
chain 2: EVQLLESGGGLVQPGGSLRLSCAASGFTFGNYDMAWVRQAPGKRPEWVSSIDTGGDITHYADSVKGRFTISRDNAKNTLYLQMNSLRPEDTAVYWCATDEEYALGPNEFDYYGQGTLVTVSSGGGGSGGGGSGGGGSGPPCPPCPAPEFLGGPSVFLFPPKPKDTLMISRTPEVTCVVVDVSQEDPEVQFNWYVDGVEVHNAKTKPREEQFNSTYRVVSVLTVLHQDWLNGKEYKCKVSNKGLPSSIEKTISKAKGQPREPQVCTLPPSQEEMTKNQVSLSCAVKGFYPSDIAVEWESNGQPENNYKTTPPVLDSDGSFFLVSRLTVDKSRWQEGNVFSCSVMHEALHNHYTQKSLSLSLGK
B6: CIgG4F6A1(G4S)1 (Fc fusion)
chain 1: GPPCPPCPAPEFLGGPSVFLFPPKPKDTLMISRTPEVTCVVVDVSQEDPEVQFNWYVDGVEVHNAKTKPREEQFNSTYRVVSVLTVLHQDWLNGKEYKCKVSNKGLPSSIEKTISKAKGQPREPQVYTLPPCQEEMTKNQVSLWCLVKGFYPSDIAVEWESNGQPENNYKTTPPVLDSDGSFFLYSRLTVDKSRWQEGNVFSCSVMHEALHNHYTQKSLSLSLGKGGGGSDVQLQESGGGLVQAGGSLRLSCAASGLTFGSYDMGWYRQAPGKQRELVGRIRNDGITYYADSVKGRFTMSRDNAKNTVYLQMNSLKPEDTAVYYCAADGTGLGHYDYWGQGTQVTVS
chain 2: GPPCPPCPAPEFLGGPSVFLFPPKPKDTLMISRTPEVTCVVVDVSQEDPEVQFNWYVDGVEVHNAKTKPREEQFNSTYRVVSVLTVLHQDWLNGKEYKCKVSNKGLPSSIEKTISKAKGQPREPQVCTLPPSQEEMTKNQVSLSCAVKGFYPSDIAVEWESNGQPENNYKTTPPVLDSDGSFFLVSRLTVDKSRWQEGNVFSCSVMHEALHNHYTQKSLSLSLGKGGGGSEVQLLESGGGLVQPGGSLRLSCAASGFTFGNYDMAWVRQAPGKRPEWVSSIDTGGDITHYADSVKGRFTISRDNAKNTLYLQMNSLRPEDTAVYWCATDEEYALGPNEFDYYGQGTLVTVSS
B7: CIgG4F5A1(G4S)2 (Fc fusion)
chain 1: GPPCPPCPAPEFLGGPSVFLFPPKPKDTLMISRTPEVTCVVVDVSQEDPEVQFNWYVDGVEVHNAKTKPREEQFNSTYRVVSVLTVLHQDWLNGKEYKCKVSNKGLPSSIEKTISKAKGQPREPQVYTLPPCQEEMTKNQVSLWCLVKGFYPSDIAVEWESNGQPENNYKTTPPVLDSDGSFFLYSRLTVDKSRWQEGNVFSCSVMHEALHNHYTQKSLSLSLGKGGGGSGGGGSDVQLQESGGGLVQPGGSLRLSCAASGSIFSIDIMGWYRQAPGKQRELVATMPEGNYINYADSVKGRLTLSRDKGKNTVYLQLNSLKPEDTAVYYCYGFGVREGRGNVYWGQGTQVTVS
chain 2: GPPCPPCPAPEFLGGPSVFLFPPKPKDTLMISRTPEVTCVVVDVSQEDPEVQFNWYVDGVEVHNAKTKPREEQFNSTYRVVSVLTVLHQDWLNGKEYKCKVSNKGLPSSIEKTISKAKGQPREPQVCTLPPSQEEMTKNQVSLSCAVKGFYPSDIAVEWESNGQPENNYKTTPPVLDSDGSFFLVSRLTVDKSRWQEGNVFSCSVMHEALHNHYTQKSLSLSLGKGGGGSGGGGSEVQLLESGGGLVQPGGSLRLSCAASGFTFGNYDMAWVRQAPGKRPEWVSSIDTGGDITHYADSVKGRFTISRDNAKNTLYLQMNSLRPEDTAVYWCATDEEYALGPNEFDYYGQGTLVTVSS
B8: NIgG4F6A1(G4S)1 (Fc fusion)
chain 1: DVQLQESGGGLVQAGGSLRLSCAASGLTFGSYDMGWYRQAPGKQRELVGRIRNDGITYYADSVKGRFTMSRDNAKNTVYLQMNSLKPEDTAVYYCAADGTGLGHYDYWGQGTQVTVSGGGGSGPPCPPCPAPEFLGGPSVFLFPPKPKDTLMISRTPEVTCVVVDVSQEDPEVQFNWYVDGVEVHNAKTKPREEQFNSTYRVVSVLTVLHQDWLNGKEYKCKVSNKGLPSSIEKTISKAKGQPREPQVYTLPPCQEEMTKNQVSLWCLVKGFYPSDIAVEWESNGQPENNYKTTPPVLDSDGSFFLYSRLTVDKSRWQEGNVFSCSVMHEALHNHYTQKSLSLSLGK
chain 2: EVQLLESGGGLVQPGGSLRLSCAASGFTFGNYDMAWVRQAPGKRPEWVSSIDTGGDITHYADSVKGRFTISRDNAKNTLYLQMNSLRPEDTAVYWCATDEEYALGPNEFDYYGQGTLVTVSSGGGGSGPPCPPCPAPEFLGGPSVFLFPPKPKDTLMISRTPEVTCVVVDVSQEDPEVQFNWYVDGVEVHNAKTKPREEQFNSTYRVVSVLTVLHQDWLNGKEYKCKVSNKGLPSSIEKTISKAKGQPREPQVCTLPPSQEEMTKNQVSLSCAVKGFYPSDIAVEWESNGQPENNYKTTPPVLDSDGSFFLVSRLTVDKSRWQEGNVFSCSVMHEALHNHYTQKSLSLSLGK

The target of this experiment is mixture of three Der p 2 specific recombinant human IgE clones H10, H12, P4E (human) (UniProt P01854). The experiment can be described thus: RBL-SX38 IgE displacement, FACS.
Sequence of mixture of three Der p 2 specific recombinant human IgE clones H10, H12, P4E (human) (P01854 other isoform, or with tags, fused parts or gaps): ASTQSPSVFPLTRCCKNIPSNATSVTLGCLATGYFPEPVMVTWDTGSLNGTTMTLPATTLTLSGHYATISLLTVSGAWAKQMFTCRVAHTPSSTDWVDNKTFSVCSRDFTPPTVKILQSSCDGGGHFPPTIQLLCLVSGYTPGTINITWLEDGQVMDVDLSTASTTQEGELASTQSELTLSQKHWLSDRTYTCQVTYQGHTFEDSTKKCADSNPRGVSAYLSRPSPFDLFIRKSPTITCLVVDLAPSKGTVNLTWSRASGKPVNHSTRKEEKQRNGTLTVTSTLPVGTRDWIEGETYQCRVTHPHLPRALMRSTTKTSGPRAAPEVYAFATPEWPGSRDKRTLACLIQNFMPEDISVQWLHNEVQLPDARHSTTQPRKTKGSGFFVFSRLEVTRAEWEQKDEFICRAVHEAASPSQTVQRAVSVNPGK
As to B1, the Max effect/effect 1 µM worked out at 96%.
Still for that read-out and setting: the figure for B2 is 27%.
Turning to B3, the EC50 was determined as 2.3 nM and the Max effect/effect 1 µM was 76%.
Turning to B4, the EC50 amounted to 3.2 nM and the Max effect/effect 1 µM was 26%.
For B5 the same measures were 2.7 nM and 87%.
For B6 the same measures were 59.9 nM and 95%.
For the molecule B7, the Max effect/effect 1 µM was found to be 25%.
For the molecule B8, the EC50 amounted to 2.2 nM and the Max effect/effect 1 µM turned out to be 68%.

The EC50 is the concentration that produces a half-maximal response.
